The values that follow come from article PMC4267640.

The target of the series is DNA polymerase alpha catalytic core (p180 core) (human, UniProt P09884 335-1257). The series is described as follows: X-ray crystallography.
Sequence of DNA polymerase alpha catalytic core (p180 core) (P09884 335-1257): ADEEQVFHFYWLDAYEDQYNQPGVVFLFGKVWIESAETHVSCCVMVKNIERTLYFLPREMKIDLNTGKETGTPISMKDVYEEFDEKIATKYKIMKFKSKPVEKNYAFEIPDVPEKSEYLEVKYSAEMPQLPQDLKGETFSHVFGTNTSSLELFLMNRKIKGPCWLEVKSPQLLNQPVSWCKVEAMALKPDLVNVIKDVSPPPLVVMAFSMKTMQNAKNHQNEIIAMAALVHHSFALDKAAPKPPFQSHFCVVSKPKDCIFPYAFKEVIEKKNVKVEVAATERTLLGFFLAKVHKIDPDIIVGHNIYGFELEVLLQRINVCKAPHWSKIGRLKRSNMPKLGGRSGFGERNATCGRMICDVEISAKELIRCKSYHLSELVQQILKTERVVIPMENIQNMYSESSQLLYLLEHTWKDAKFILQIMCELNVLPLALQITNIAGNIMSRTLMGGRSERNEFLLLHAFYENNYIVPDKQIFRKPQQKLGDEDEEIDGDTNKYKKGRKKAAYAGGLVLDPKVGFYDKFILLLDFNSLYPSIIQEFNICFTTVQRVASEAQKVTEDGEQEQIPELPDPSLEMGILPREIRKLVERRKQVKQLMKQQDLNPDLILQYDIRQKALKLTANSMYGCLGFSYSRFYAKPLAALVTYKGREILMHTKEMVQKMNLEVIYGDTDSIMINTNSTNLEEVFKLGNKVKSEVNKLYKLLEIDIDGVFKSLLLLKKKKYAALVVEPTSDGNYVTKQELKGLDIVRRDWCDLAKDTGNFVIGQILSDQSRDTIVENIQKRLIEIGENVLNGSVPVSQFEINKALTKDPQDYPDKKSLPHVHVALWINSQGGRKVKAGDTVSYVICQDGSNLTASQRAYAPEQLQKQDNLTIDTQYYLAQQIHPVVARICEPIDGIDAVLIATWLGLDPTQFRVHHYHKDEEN

B1: RNA-primed DNA template (DNA:RNA)
DNA: ATTACTATAGGCGCTCCAGGC
RNA: GCCUGGAGCGC
modifications: primer strand is RNA with a 3'-terminal dideoxycytidine (ddC)
As for B1, the binding result was “binds”.
